In this assay the target is IRΔβ (human insulin receptor ectodomain construct, (αβ)2 homodimer) (human) (UniProt P06213). Put plainly: crystal structure.

As to “IRΔβ (human insulin receptor ectodomain construct, (αβ)2 homodimer) (from UniProt P06213-2 28-1370)”, the stoichiometry N (commonly a count of units in the complex or per binding partner) was 2.
